In the Human Domainome abundance scans (Beltran et al. 2025) one finds abundance fitness data, which are given here for 44 variants.

B1: Proto-oncogene vav, residues 782 to 842; numbered along this chain, P15498 (parent)
chain: KYFGTAKARYDFCARDRSELSLKEGDIIKILNKKGQQGWWRGEIYGRVGWFPANYVEEDYS

± gives the uncertainty stated by the source.

In the data set the parent is B1. Description: abundance fitness (aPCA) (normalised: wild type 0, dead -1); higher = more abundant; growth selection in yeast, the domain comes from the species named. The conditions noted are these: Homo sapiens.
For the variant KYFGTAKARYDFCARDRSELSLKEGDIIKILNKKGQQGWWRGEIYGRVGWFPARYVEEDYS [N54R], the abundance fitness came to 0.055 ± 0.07.
For the variant KYFGTAKARYDFCARDRSELSLKEGDIIKILNKKGQQGWWRGEIYGRVGWFPAIYVEEDYS [N54I], the abundance fitness was -0.376 ± 0.13.
As to KYFGTAKARYDFCARDRSELSLKEGDIIKILNKKGQQGWWRGEIYGRVGWFPATYVEEDYS [N54T], the abundance fitness was -0.112 ± 0.094.
In the case of KYFGTAKARYDFCARDRSELSLKEGDIIKILNKKGQQGWWRGEIYGRVGWFPAVYVEEDYS [N54V], the abundance fitness is -0.098 ± 0.054.
In the case of KYFGTAKARYDFCARDRSELSLKEGDIIKILNKKGQQGWWRGEIYGRVGWFPAAYVEEDYS [N54A], the abundance fitness stood at 0.051 ± 0.074.
In the case of KYFGTAKARYDFCARDRSELSLKEGDIIKILNKKGQQGWWRGEIYGRVGWFPAFYVEEDYS [N54F] it was -0.406 ± 0.12; in that of KYFGTAKARYDFCARDRSELSLKEGDIIKILNKKGQQGWWRGEIYGRVGWFPAMYVEEDYS [N54M], -0.214 ± 0.097.
Turning to KYFGTAKARYDFCARDRSELSLKEGDIIKILNKKGQQGWWRGEIYGRVGWFPANYHEEDYS [V56H], the abundance fitness is -0.753 ± 0.34.
As for KYFGTAKARYDFCARDRSELSLKEGDIIKILNKKGQQGWWRGEIYGRVGWFPANYGEEDYS [V56G], the abundance fitness is -0.545 ± 0.13.
The result for KYFGTAKARYDFCARDRSELSLKEGDIIKILNKKGQQGWWRGEIYGRVGWFPANYFEEDYS [V56F] reads -0.794 ± 0.2; that for KYFGTAKARYDFCARDRSELSLKEGDIIKILNKKGQQGWWRGEIYGRVGWFPANYLEEDYS [V56L], -0.616 ± 0.08; that for KYFGTAKARYDFCARDRSELSLKEGDIIKILNKKGQQGWWRGEIYGRVGWFPANYNEEDYS [V56N], -0.807 ± 0.33.
The result for KYFGTAKARYDFCARDRSELSLKEGDIIKILNKKGQQGWWRGEIYGRVGWFPANYEEEDYS [V56E] reads -0.562 ± 0.21; that for KYFGTAKARYDFCARDRSELSLKEGDIIKILNKKGQQGWWRGEIYGRVGWFPANYAEEDYS [V56A], -0.191 ± 0.098.
On to KYFGTAKARYDFCARDRSELSLKEGDIIKILNKKGQQGWWRGEIYGRVGWFPANYIEEDYS [V56I], for which the abundance fitness is -0.554 ± 0.14.
The result for KYFGTAKARYDFCARDRSELSLKEGDIIKILNKKGQQGWWRGEIYGRVGWFPANYKEEDYS [V56K] reads -0.599 ± 0.18.
Regarding KYFGTAKARYDFCARDRSELSLKEGDIIKILNKKGQQGWWRGEIYGRVGWFPANYREEDYS [V56R], the abundance fitness is -1.03 ± 0.14.
Regarding KYFGTAKARYDFCARDRSELSLKEGDIIKILNKKGQQGWWRGEIYGRVGWFPANYCEEDYS [V56C], the abundance fitness is -0.452 ± 0.13.
As for KYFGTAKARYDFCARDRSELSLKEGDIIKILNKKGQQGWWRGEIYGRVGWFPANYQEEDYS [V56Q], the abundance fitness is -1 ± 0.3.
In the case of KYFGTAKARYDFCARDRSELSLKEGDIIKILNKKGQQGWWRGEIYGRVGWFPANYMEEDYS [V56M], the abundance fitness was -1.02 ± 0.3.
KYFGTAKARYDFCARDRSELSLKEGDIIKILNKKGQQGWWRGEIYGRVGWFPANYPEEDYS [V56P]: the abundance fitness is -0.73 ± 0.18.
In the case of KYFGTAKARYDFCARDRSELSLKEGDIIKILNKKGQQGWWRGEIYGRVGWSPANYVEEDYS [F51S] it was -0.857 ± 0.15; in that of KYFGTAKARYDFCARDRSELSLKEGDIIKILNKKGQQGWWRGEIYGRVGWVPANYVEEDYS [F51V], -0.684 ± 0.1.
The result for KYFGTAKARYDFCARDRSELSLKEGDIIKILNKKGQQGWWRGEIYGRVGWWPANYVEEDYS [F51W] reads -0.988 ± 0.2; that for KYFGTAKARYDFCARDRSELSLKEGDIIKILNKKGQQGWWRGEIYGRVGWTPANYVEEDYS [F51T], -0.799 ± 0.15; that for KYFGTAKARYDFCARDRSELSLKEGDIIKILNKKGQQGWWRGEIYGRVGWFPFNYVEEDYS [A53F], -0.472 ± 0.13.
Regarding KYFGTAKARYDFCARDRSELSLKEGDIIKILNKKGQQGWWRGEIYGRVGWFPTNYVEEDYS [A53T], the abundance fitness was -0.227 ± 0.08.
In the case of KYFGTAKARYDFCARDRSELSLKEGDIIKILNKKGQQGWWRGEIYGRVGWFPWNYVEEDYS [A53W] it was -0.451 ± 0.079; in that of KYFGTAKARYDFCARDRSELSLKEGDIIKILNKKGQQGWWRGEIYGRVGWFPCNYVEEDYS [A53C], -0.078 ± 0.1; in that of KYFGTAKARYDFCARDRSELSLKEGDIIKILNKKGQQGWWRGEIYGRVGWFPDNYVEEDYS [A53D], -0.641 ± 0.16.
The result for KYFGTAKARYDFCARDRSELSLKEGDIIKILNKKGQQGWWRGEIYGRVGWFPSNYVEEDYS [A53S] reads -0.082 ± 0.063; that for KYFGTAKARYDFCARDRSELSLKEGDIIKILNKKGQQGWWRGEIYGRVGWFPHNYVEEDYS [A53H], -0.011 ± 0.18.
Take KYFGTAKARYDFCARDRSELSLKEGDIIKILNKKGQQGWWRGEIYGRVGWFPNNYVEEDYS [A53N]: the abundance fitness is -0.444 ± 0.14.
Regarding KYFGTAKARYDFCARDRSELSLKEGDIIKILNKKGQQGWWRGEIYGRVGWFPRNYVEEDYS [A53R], the abundance fitness is -0.151 ± 0.062.
With KYFGTAKARYDFCARDRSELSLKEGDIIKILNKKGQQGWWRGEIYGRVGWFPVNYVEEDYS [A53V], the abundance fitness is -0.301 ± 0.061.
As to KYFGTAKARYDFCARDRSELSLKEGDIIKILNKKGQQGWWRGEIYGRVGWFPENYVEEDYS [A53E], the abundance fitness is -0.208 ± 0.099.
Consider KYFGTAKARYDFCARDRSELSLKEGDIIKILNKKGQQGWWRGEIYGRVGWFPPNYVEEDYS [A53P], for which the abundance fitness was -0.226 ± 0.096.
As to KYFGTAKARYDFCARDRSELSLKEGDIIKILNKKGQQGWWRGEIYGRVGWFPYNYVEEDYS [A53Y], the abundance fitness was -0.341 ± 0.19.
KYFGTAKARYDFCARDRSELSLKEGDIIKILNKKGQQGWWRGEIYGRVGWFPGNYVEEDYS [A53G]: the abundance fitness was -0.4 ± 0.056.
Consider KYFGTAKARYDFCARDRSELSLKEGDIIKILNKKGQQGWWRGEIYGRVGWFPLNYVEEDYS [A53L], for which the abundance fitness was -0.505 ± 0.064.
For KYFGTAKARYDFCARDRSELSLKEGDIIKILNKKGQQGWWRGEIYGRVGWFPKNYVEEDYS [A53K], the abundance fitness was -0.243 ± 0.1.
Consider KYFGTAKARYDFCARDRSELSLKEGDIIKILNKKGQQGWWRGEIYGRVGWFPQNYVEEDYS [A53Q], for which the abundance fitness is -0.243 ± 0.13.
For KYFGTAKARYDFCARDRSELSLKEGDIIKILNKKGQQGWWRGEIYGRVGWFPMNYVEEDYS [A53M], the abundance fitness was -0.178 ± 0.11.
For KYFGTAKARYDFCARDRSELSLKEGDIIKILNKKGQQGWWRGEIYGRVGWFPINYVEEDYS [A53I], the abundance fitness was -0.314 ± 0.15.
